The target in experiment [1] is T1, FliC protein at the surface of P. aeruginosa PAO1 (Pseudomonas aeruginosa PAO1, UniProt P72151 1-488).
T1 construct: whole, on cells; Native protein on whole bacteria or in lysates; also called P. aeruginosa PAO1 flagellin; type b flagellin
T1 sequence: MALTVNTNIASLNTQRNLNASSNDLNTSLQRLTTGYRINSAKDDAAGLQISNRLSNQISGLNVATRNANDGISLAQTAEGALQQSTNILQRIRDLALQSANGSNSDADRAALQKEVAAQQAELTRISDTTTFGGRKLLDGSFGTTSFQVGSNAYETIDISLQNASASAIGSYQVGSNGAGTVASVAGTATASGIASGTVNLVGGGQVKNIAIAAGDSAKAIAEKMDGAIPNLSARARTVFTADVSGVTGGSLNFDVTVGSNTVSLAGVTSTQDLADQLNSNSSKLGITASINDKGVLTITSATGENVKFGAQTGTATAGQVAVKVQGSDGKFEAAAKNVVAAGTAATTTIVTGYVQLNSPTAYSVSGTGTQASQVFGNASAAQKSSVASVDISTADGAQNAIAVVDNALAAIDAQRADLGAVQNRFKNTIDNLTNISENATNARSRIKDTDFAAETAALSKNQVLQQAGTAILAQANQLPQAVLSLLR
The experiment is described as follows: direct ELISA of hybridoma supernatant on whole P. aeruginosa PAO1.

Experiment [2] deals with T2, purified recombinant FliC from P. aeruginosa (polyHis-tag FliC protein, gene from P. aeruginosa PAO1) (Pseudomonas aeruginosa PAO1, UniProt P72151 1-488).
T2 construct: also called P. aeruginosa flagellin; purified FliC protein from P. aeruginosa; not shown: polyhistidine tag
T2 sequence: T1 sequence
Description: direct ELISA of hybridoma supernatant on coated recombinant FliC.

B1: WVDC-2109 (antibody, V domains shown)
VH: EVQLQESGAELVKPGASVKLSCKASGYTFTSYWMHWVKQRPGQGLEWIGMIRPNSGSTNYNEKFKSKATLTVDKSSSTAYMQLSSPTSEDSAVYYCARRGYGSSYGYYAMDYWGQGTSVTVSS
VL: DIVVTQTTSSLSASLGDRVTISCRASQDISNYLNWYQQKPDGTVKLLINYTSRLNSGVPSRFSGSGSGTDYSLTISNLEQEDIATYFCQQGNTLPWTFGGGTKLE
notes: also called anti-FliC mAb; mAb WVDC-2109
For B1, the binding result in experiment [1] and in experiment [2] was “binds” in each case.
